The supplement of paper PMC11865577

system: G-clamp-N3 (biotin conjugate); experiment: pull-down binding Z-score (relative to library population); higher = stronger binding; settings: RNA library: Library-1 (pre-miRNA loops + repeats)
How it was run: (§1)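 Binding is given as a Z-score against the library mean and standard deviation, calculated after removing the beads-only signal and averaging barcoded replicate probes without their highest and lowest values. Cy5- or Cy3-end-labelled RNA library (1 μg) was heat-folded in phosphate/NaCl/KCl buffer and incubated 60 min at 25 °C with streptavidin beads bearing 100 pmol of biotin-conjugated small molecule. After three washes, RNA eluted in hot SDS was hybridised to a DNA barcode microarray for 20 h at 55.5 °C.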

Row | Sequence | pull-down binding Z-score
1 | CUUUCUGUUGUCUAAAAGAAAAGAACG [hsa-mir-521-1] | 0.795
2 | CUUUCUGUUGUCUGAAAGAAAAGAAAA [hsa-mir-522] | -0.228
3 | CUUUCUGUUGUCUGAAAGAAAAGAAAG [hsa-mir-520c_520b_519c_519b] | 0.44
4 | CUUUCUGUUGUCUGAAAGAAAGGAAAG [hsa-mir-519a-1_519a-2] | -0.55
5 | CUUUCUGUUGUCUGAGAGAAAAGAAAG [hsa-mir-520a] | 0.6
6 | CUUUGCUACUGCUC [hsa-mir-6072] | -0.385
7 | CUUUGGUGGCUAUGGUUGACUGGGCCACUCAGAG [hsa-mir-4468] | 2.29
8 | CUUUGUCAUUAAAACCAAUAACAAAA [hsa-mir-548ap] | -0.92
9 | CUUUGUCUGACUACAAUAUUCAAAAG [hsa-mir-4426] | -1.96
10 | CUUUGUGAUUUUAUGAGAACAAAG [hsa-mir-3173] | 0.801
11 | CUUUUAGAGUAAUUGUGAAACUGUUUUUCAAAG [hsa-mir-562] | 0.748
12 | CUUUUAUAUCAAGGCACAUAAAAG [hsa-mir-3910-1] | -1.7
13 | CUUUUAUGUGCCUUGAUAUAAAAG [hsa-mir-3910-2] | -0.124
14 | CUUUUGGAAAAUAGAAAAG [hsa-mir-3184] | 1.56
15 | CUUUUGUUCAAAUAAAAAUGCAAAAG [hsa-mir-651] | -0.842
16 | CUUUUUGCCACCUGAGCACAGUCAGCAGUCAGCAUAAAA [hsa-mir-4275] | 0.39
17 | CUUUUUGCUGAUGGAGGGUCUUGCCUCCAUGGGGAUGGCUG [hsa-mir-4502] | 1
18 | GAAAAAUCCCUGUUAACUUUC [hsa-mir-6833] | -0.686
19 | GAAAACUUUGGAGAAAAAUUUUC [hsa-mir-4659a] | -0.714

system: TO-N3-2 (biotin conjugate); experiment: as above; settings: RNA library: Library-2
How it was run: as §1

Row | Sequence | pull-down binding Z-score
20 | CUGUCUGUUGUCUAAGAAAAGAUCG [hsa-mir-517c_517b] | 0.202
21 | CUGUGAAUCCAAGAUCCACA [hsa-mir-4527] | -0.241
22 | CUGUGACGUGCUCCAUCACCGGGCAG [hsa-mir-3714] | 0.847
23 | CUGUGAGGACAUCCAGGGUCACAG [hsa-mir-125a] | 0.969
24 | CUGUGAUAACAACUCAG [hsa-mir-4705] | -0.508
25 | CUGUGCAGAACAUCCGCUCACCUGUACAG [hsa-mir-214] | 0.171
26 | CUGUGCAGGGCCAACUGUGCACAC [hsa-mir-3681] | 1.14
27 | CUGUGCUGUCUCUGAGCACCG [hsa-mir-6827] | 0.586
28 | CUGUGGCCGGUCCCAG [hsa-mir-4656] | 0.902
29 | CUGUGGUCUAACCUUUCCCAUCU [hsa-mir-6828] | 0.334
30 | CUGUGGUGGCUGCUCAUGCACCACGG [hsa-mir-105-1] | -0.558
31 | CUGUGGUGGCUGCUUAUGCACCACGG [hsa-mir-105-2] | -0.626
32 | CUGUGGUUUGCUGGCUGCCUCAG [hsa-mir-6736] | 0.776
33 | CUGUGUGAGGACUAGAGGCGG [hsa-mir-4523] | 1.05
34 | CUGUUCAGGACAAUGCCGUUGUACA [hsa-mir-199a-2] | 0.838
35 | CUGUUCAGGACUCCCAAAUUGUACAG [hsa-mir-199b] | 0.347
36 | CUGUUCAGGAGGCUCUCAAUGUGUACA [hsa-mir-199a-1] | 0.656
37 | CUGUUGAAAGAAAAG [hsa-mir-526a-2] | 0.598
38 | CUGUUGUGCCUAAUUCAGAG [hsa-mir-296] | 0.492
39 | CUGUUGUUUCAGCUCGACAACAACAG [hsa-mir-3937] | -0.505
40 | CUGUUUCUGGUGAAAUAUUCAAACAG [hsa-mir-4433a] | 0.256
41 | CUGUUUGUUGUCUGAGAAAAAACA [hsa-mir-520g_520h] | -0.229
42 | CUUAAGUGGUUCGGGUAAAUCACUUUAA [hsa-mir-3977] | -0.585
43 | CUUAAUAGAUUAAUAUUUGUAAG [hsa-mir-506] | -1.02
44 | CUUACUGCCCGGGCCGCCCUCAGUAA [hsa-mir-212] | 1.45

Row | Sequence | pull-down binding Z-score
45 | CUUACUGUACACGUGGCUGGCAAG [hsa-mir-4428] | 1.09
46 | CUUAGAUUUUUCCAUCUUUGUAUCUAG [hsa-mir-29b-2] | -0.98
47 | CUUAGUAGGUGAUAGCAUGACUGAC [hsa-mir-5002] | 1.16
48 | CUUCACUGGUGCAGUAAGAAG [hsa-mir-7853] | -0.23
49 | CUUCAGAGCAGGGUUUGGUCUGUGCUUCUCUG [hsa-mir-6719] | 0.452
50 | CUUCAGCCCCAGGAAGCCUUGGUCGGGGGCAGGAG [hsa-mir-647] | 0.849
51 | CUUCCCAUUUAAAAGUAAUGGCACA [hsa-mir-603] | 0.104
52 | CUUCCUGAGCACGCUCAUGAUGAGCAAACUGAGCCUCUAAG [hsa-mir-3653] | 0.429
53 | CUUCGCGCUAGUUUGUUUGUGUUAAG [hsa-mir-6077] | -0.426
54 | CUUCGGUAUUCAUCAAAAAUACCAAAG [hsa-mir-4735] | -1.52
55 | CUUCUGCUUCCUCUUAGCGCAGGAG [hsa-mir-1914] | -0.409
56 | CUUCUUACUGCACCAGUGAAG [hsa-mir-5683] | 0.131
57 | CUUGAUUUAAAUGUCCAUACAAUUAAG [hsa-mir-124-1] | -0.133
58 | CUUGAUUUAAUGUCAUACAAUUAAG [hsa-mir-124-2] | -0.734
59 | CUUGAUUUAAUGUCUAUACAAUUAAG [hsa-mir-124-3] | -0.45
60 | CUUGCAGAAUUAAUGGAAUGCUG [hsa-mir-676] | 0.28
61 | CUUGCGGGGCCUUCGCCGCACACAAG [hsa-mir-99b] | 0.595
62 | CUUGCUGUGACAUGACAAAAAUAAG [hsa-mir-302d] | -0.107
63 | CUUGCUUUGAAACUAAAGAAGUAAG [hsa-mir-302a] | -0.319
64 | CUUGGCACCUUUGGCCUUAG [hsa-mir-4540] | -0.0687
65 | CUUGGCUUCAAUUUACUCCCAGG [hsa-mir-4446] | 0.323
66 | CUUGGGCCCAUUCCUUUCCUUACCCUAC [hsa-mir-6798] | 0.758
67 | CUUGUGGUAUUAGUCCGCACAAG [hsa-mir-100] | -0.096
68 | CUUGUGGUGAAGUGGACCGCACAAG [hsa-mir-99a] | 1
69 | CUUUAGCUAUUCUGAAUGCCUAAAG [hsa-mir-4662a] | -0.393

Row | Sequence | pull-down binding Z-score
70 | CUUUAGGCAUUCAGAAUAGCUAAAG [hsa-mir-4662b] | -0.263
71 | CUUUCCUCAGCUGAUUUCUUUCUGGGGAGAG [hsa-mir-5186] | -1.08
72 | CUUUCCUUUUUGUCUGUACUGGGAAG [hsa-mir-373] | -1.12
73 | CUUUCUGUGACUUUAAAAGUAAG [hsa-mir-302b] | -0.999
74 | CUUUCUGUUGGCUAAAAGAAAAGAAAG [hsa-mir-518e] | 0.0576
75 | CUUUCUGUUGUCUAAAAGAAAAGAAAG [hsa-mir-520d] | -0.127
76 | CUUUCUGUUGUCUAAAAGAAAAGAACG [hsa-mir-521-1] | 0.0505
77 | CUUUCUGUUGUCUGAAAGAAAAGAAAA [hsa-mir-522] | 0.775
78 | CUUUCUGUUGUCUGAAAGAAAAGAAAG [hsa-mir-520c_520b_519c_519b] | 0.38
79 | CUUUCUGUUGUCUGAAAGAAAGGAAAG [hsa-mir-519a-1_519a-2] | -0.239
80 | CUUUCUGUUGUCUGAGAGAAAAGAAAG [hsa-mir-520a] | -0.553
81 | CUUUGCUACUGCUC [hsa-mir-6072] | 0.112
82 | CUUUGGUGGCUAUGGUUGACUGGGCCACUCAGAG [hsa-mir-4468] | 0.846
83 | CUUUGUCAUUAAAACCAAUAACAAAA [hsa-mir-548ap] | -0.638
84 | CUUUGUCUGACUACAAUAUUCAAAAG [hsa-mir-4426] | -0.569
85 | CUUUGUGAUUUUAUGAGAACAAAG [hsa-mir-3173] | -1.27
86 | CUUUUAGAGUAAUUGUGAAACUGUUUUUCAAAG [hsa-mir-562] | -0.462
87 | CUUUUAUAUCAAGGCACAUAAAAG [hsa-mir-3910-1] | -1.17
88 | CUUUUAUGUGCCUUGAUAUAAAAG [hsa-mir-3910-2] | -0.682
89 | CUUUUGGAAAAUAGAAAAG [hsa-mir-3184] | -0.0491
90 | CUUUUGUUCAAAUAAAAAUGCAAAAG [hsa-mir-651] | -1.25
91 | CUUUUUGCCACCUGAGCACAGUCAGCAGUCAGCAUAAAA [hsa-mir-4275] | 1.15
92 | CUUUUUGCUGAUGGAGGGUCUUGCCUCCAUGGGGAUGGCUG [hsa-mir-4502] | 0.571
93 | GAAAAAUCCCUGUUAACUUUC [hsa-mir-6833] | 0.133
94 | GAAAACUUUGGAGAAAAAUUUUC [hsa-mir-4659a] | -0.857
